In PMC10765524, “Cryo-EM structures of PP2A:B55–FAM122A and PP2A:B55–ARPP19” (Nature, 2023):
One block for each binder: values may come before it.

B1: tpS62tpS104ARPP19 (ARPP19 thiophosphorylated by MASTL on Ser62 and Ser104) (natural protein, UniProt P56211 1-112, looked up)
chain: MSAEVPEAASAEEQKEMEDKVTSPEKAEEAKLKARYPHLGQKPGGSDFLRKRLQKGQKYFDSGDYNMAKAKMKNKQLPTAAPDKTEVTGDHIPTPQDLPQRKPSLVASKLAG
modifications: thiophosphoserine at 62 and 104
B6: B55 (subunit of the PP2A:B55 holoenzyme) (natural protein, UniProt P63151 1-447, looked up)
chain: MAGAGGGNDIQWCFSQVKGAVDDDVAEADIISTVEFNHSGELLATGDKGGRVVIFQQEQENKIQSHSRGEYNVYSTFQSHEPEFDYLKSLEIEEKINKIRWLPQKNAAQFLLSTNDKTIKLWKISERDKRPEGYNLKEEDGRYRDPTTVTTLRVPVFRPMDLMVEASPRRIFANAHTYHINSISINSDYETYLSADDLRINLWHLEITDRSFNIVDIKPANMEELTEVITAAEFHPNSCNTFVYSSSKGTIRLCDMRASALCDRHSKLFEEPEDPSNRSFFSEIISSISDVKFSHSGRYMMTRDYLSVKIWDLNMENRPVETYQVHEYLRSKLCSLYENDCIFDKFECCWNGSDSVVMTGSYNNFFRMFDRNTKRDITLEASRENNKPRTVLKPRKVCASGKRKKDEISVDSLDFNKKILHTAWHPKENIIAVATTNNLYIFQDKVN
notes: B55 regulatory subunit, printed as full-length B55 1–477; The B55 chain of m1, written alone for the contacts seen in the cryo-EM structures; also called B55WT; source: Expi293F, purified as part of PP2A:B55; not shown: GFP, N-terminal, cleaved

Experiments:
[1] = biological target: PP2A:B55 holoenzyme (PP2Aa, B55, PP2Ac) (UniProt P30153 9-589; P63151 1-447; P67775 1-309, C-terminal residue fully methylated (mLeu309)); test: cell-based or functional assay
PP2A:B55 holoenzyme (PP2Aa, B55, PP2Ac), sequence (P30153 9-589, chain 1 of 2): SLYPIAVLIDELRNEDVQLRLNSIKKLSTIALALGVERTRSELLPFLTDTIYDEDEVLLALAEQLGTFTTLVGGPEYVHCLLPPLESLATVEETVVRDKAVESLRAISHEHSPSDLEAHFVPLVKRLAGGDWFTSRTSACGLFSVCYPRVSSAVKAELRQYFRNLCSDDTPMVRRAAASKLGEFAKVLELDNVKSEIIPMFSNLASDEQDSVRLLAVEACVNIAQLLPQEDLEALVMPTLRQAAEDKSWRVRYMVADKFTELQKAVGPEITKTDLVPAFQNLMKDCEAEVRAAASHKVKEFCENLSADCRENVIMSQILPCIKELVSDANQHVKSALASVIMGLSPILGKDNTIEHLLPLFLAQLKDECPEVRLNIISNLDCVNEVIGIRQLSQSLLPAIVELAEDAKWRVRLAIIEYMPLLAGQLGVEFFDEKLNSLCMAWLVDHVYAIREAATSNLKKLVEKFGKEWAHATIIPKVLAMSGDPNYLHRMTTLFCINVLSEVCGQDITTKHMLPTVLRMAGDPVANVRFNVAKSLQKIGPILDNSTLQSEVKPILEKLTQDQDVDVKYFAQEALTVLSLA
PP2A:B55 holoenzyme (PP2Aa, B55, PP2Ac), sequence (P67775 whole entry, chain 3 of 2): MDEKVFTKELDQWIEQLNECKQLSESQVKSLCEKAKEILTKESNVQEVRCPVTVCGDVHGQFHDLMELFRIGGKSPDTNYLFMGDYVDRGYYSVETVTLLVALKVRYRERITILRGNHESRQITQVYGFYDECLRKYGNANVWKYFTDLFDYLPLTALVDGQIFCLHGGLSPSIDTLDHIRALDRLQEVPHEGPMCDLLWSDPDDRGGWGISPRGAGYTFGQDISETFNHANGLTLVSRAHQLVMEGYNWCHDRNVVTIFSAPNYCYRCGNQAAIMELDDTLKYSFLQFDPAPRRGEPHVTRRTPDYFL

[2] = biological target: T1, ARPP19(S10C) labelled with Alexa Fluor 488 (ARPP19-tracer) (UniProt P56211 1-112, S10C, Alexa Fluor 488 C5 Maleimide label); test: fluorescence polarisation; PP2A:B55 (or B55LL) serially diluted into 0.1 nM Alexa Fluor 488 tracer (FAM122AID-tracer or ARPP19-tracer); 10 mM HEPES pH 7.0, 150 mM NaCl, 0.5 mM TCEP, 0.01% Triton X-100, 0.1 mg/ml BSA; 30 min at room temperature; conditions: both partners purified
T1 construct: ARPP19, S10C; source: E. coli BL21 (DE3), purified; labelled, recovered by analytical SEC; not shown: His6, N-terminal, cleaved; MBP, N-terminal, cleaved
T1 sequence (looked up): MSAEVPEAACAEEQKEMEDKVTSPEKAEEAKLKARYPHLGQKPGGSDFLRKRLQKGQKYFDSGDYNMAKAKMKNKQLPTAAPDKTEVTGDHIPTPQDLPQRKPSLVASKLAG

[3] = biological target: T2, cAMP regulated phosphoprotein 19 (ARPP19), unphosphorylated (UniProt P56211 1-112); test: NMR titration; 2D 1H,15N HSQC of 15N-labelled FAM122A or ARPP19 (2–6 μM) with an excess of unlabelled PP2A:B55 or B55LL; peak intensity loss; 283 K; NMR buffer pH 6.3, 150 mM NaCl; conditions: both partners purified
T2 construct: 15N-labelled in the NMR experiments; source: E. coli BL21 (DE3), purified (HisTrap, TEV cleavage, Ni-NTA, heat, SEC); not shown: His6, N-terminal, cleaved; MBP, N-terminal, cleaved
T2 sequence (looked up): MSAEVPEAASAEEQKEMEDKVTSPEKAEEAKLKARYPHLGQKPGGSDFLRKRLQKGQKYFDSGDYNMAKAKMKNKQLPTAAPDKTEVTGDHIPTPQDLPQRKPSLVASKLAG

[4] = biological target: B1; test: as above; conditions: both partners purified
[5] = biological target: B6; test: cryo-EM structure; purified PP2A:B55 incubated with FAM122AID or tpARPP19 at a 1.5 molar ratio; CHAPSO added before vitrification; conditions: both partners purified
[6] = biological target: T3, PP2Aa_(9–589) (scaffolding subunit of the PP2A:B55 holoenzyme) (UniProt P30153 9-589); test: as above; conditions: both partners purified
T3 construct: PP2Aa (PP2A scaffolding A subunit), residues 9-589; The PP2Aa chain of m1, written alone for the contacts seen in the cryo-EM structures; source: E. coli BL21 (DE3), purified (HisTrap, TEV cleavage, Ni-NTA, QTrap, SEC); not shown: His6, N-terminal, cleaved; MBP, N-terminal, cleaved
T3 sequence (P30153 9-589): as the sequence (P30153 9-589, chain 1 of 2) above

YFP–ARPP19 L53A = biological target: T4, YFP–ARPP19 L53A (UniProt P56211 1-112, L53A); test: co-IP; YFP–ARPP19 variants transiently transfected into HeLa cells, precipitated with GFP-Trap beads at 4 °C in 50 mM Tris-HCl pH 7.5, 50 mM NaCl, 1 mM EDTA, 1 mM DTT, 0.1% NP40; western blot for B55α and PP2Ac; conditions: partners not purified
T4 construct: ARPP19; source: HeLa, transiently transfected, in lysate
T4 sequence (looked up): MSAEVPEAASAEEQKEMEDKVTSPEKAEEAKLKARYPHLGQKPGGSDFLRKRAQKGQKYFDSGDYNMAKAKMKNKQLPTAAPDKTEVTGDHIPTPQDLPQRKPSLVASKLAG

YFP–ARPP19 F48A = biological target: T5, YFP–ARPP19 F48A (UniProt P56211 1-112, F48A); test: as above; conditions: partners not purified
T5 construct: ARPP19; source: HeLa, transiently transfected, in lysate
T5 sequence (looked up): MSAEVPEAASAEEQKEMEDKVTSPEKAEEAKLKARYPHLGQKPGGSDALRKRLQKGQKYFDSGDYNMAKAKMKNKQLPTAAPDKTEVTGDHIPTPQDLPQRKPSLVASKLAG

YFP–ARPP19 R50A = biological target: T6, YFP–ARPP19 R50A (UniProt P56211 1-112, R50A); test: as above; conditions: partners not purified
T6 construct: ARPP19; source: HeLa, transiently transfected, in lysate
T6 sequence (looked up): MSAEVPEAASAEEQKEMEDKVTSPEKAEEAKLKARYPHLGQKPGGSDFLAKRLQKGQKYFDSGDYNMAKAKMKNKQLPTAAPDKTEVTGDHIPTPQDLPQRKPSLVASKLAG

YFP–ARPP19 K55A = biological target: T7, YFP–ARPP19 K55A (UniProt P56211 1-112, K55A); test: as above; conditions: partners not purified
T7 construct: ARPP19; source: HeLa, transiently transfected, in lysate
T7 sequence (looked up): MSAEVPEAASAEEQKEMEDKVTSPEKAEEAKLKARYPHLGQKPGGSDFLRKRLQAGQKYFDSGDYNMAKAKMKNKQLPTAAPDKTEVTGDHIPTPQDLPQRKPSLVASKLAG

YFP–ARPP19 L49A = biological target: T8, YFP–ARPP19 L49A (UniProt P56211 1-112, L49A); test: as above; conditions: partners not purified
T8 construct: ARPP19; source: HeLa, transiently transfected, in lysate
T8 sequence (looked up): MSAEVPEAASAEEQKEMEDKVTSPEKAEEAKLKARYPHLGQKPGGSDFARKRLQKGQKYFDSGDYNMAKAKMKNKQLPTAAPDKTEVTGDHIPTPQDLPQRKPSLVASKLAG

YFP–ARPP19 R52A = biological target: T9, YFP–ARPP19 R52A (UniProt P56211 1-112, R52A); test: as above; conditions: partners not purified
T9 construct: ARPP19; source: HeLa, transiently transfected, in lysate
T9 sequence (looked up): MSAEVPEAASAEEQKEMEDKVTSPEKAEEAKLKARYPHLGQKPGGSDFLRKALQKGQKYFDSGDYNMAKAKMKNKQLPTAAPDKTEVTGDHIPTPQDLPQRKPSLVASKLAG

Binder: B1
potency of PP2A:B55 inhibition (DiFMUP) against that of FAM122A [1]: ~250 fold

B2: FAM122AID I88A/K89A/S120C (domain or fragment, UniProt Q96E09 29-120, looked up)
chain: GGGLRRSNSAPLIHGLSDTSPVFQAEAPSARRNSTTFPSRHGLLLPASPVRMHSSRLHQAAQEEGMDLINRETVHEREVQTAMQISHSWEEC
modifications: Alexa Fluor 488 C5 Maleimide label (fluorescence polarization assay)
IC50 of PP2A:B55 inhibition (DiFMUP), fold increase against wild type [1]: 48 fold

Binder: B6
binding result [6]: binds

B7: B55, endogenous in HeLa cells (natural protein, human (endogenous in HeLa), UniProt P63151 1-447, looked up)
chain: MAGAGGGNDIQWCFSQVKGAVDDDVAEADIISTVEFNHSGELLATGDKGGRVVIFQQEQENKIQSHSRGEYNVYSTFQSHEPEFDYLKSLEIEEKINKIRWLPQKNAAQFLLSTNDKTIKLWKISERDKRPEGYNLKEEDGRYRDPTTVTTLRVPVFRPMDLMVEASPRRIFANAHTYHINSISINSDYETYLSADDLRINLWHLEITDRSFNIVDIKPANMEELTEVITAAEFHPNSCNTFVYSSSKGTIRLCDMRASALCDRHSKLFEEPEDPSNRSFFSEIISSISDVKFSHSGRYMMTRDYLSVKIWDLNMENRPVETYQVHEYLRSKLCSLYENDCIFDKFECCWNGSDSVVMTGSYNNFFRMFDRNTKRDITLEASRENNKPRTVLKPRKVCASGKRKKDEISVDSLDFNKKILHTAWHPKENIIAVATTNNLYIFQDKVN
notes: B55 detected with an antibody to B55α; also called B55α; source: endogenous, HeLa lysate
binding, percent of wild type (YFP–ARPP19 L53A): < 25%
binding, percent of wild type (YFP–ARPP19 F48A): ~50%
binding, percent of wild type (YFP–ARPP19 R50A): ~50%
binding, percent of wild type (YFP–ARPP19 K55A): ~75%
binding, percent of wild type (YFP–ARPP19 L49A): ~75%
binding, percent of wild type (YFP–ARPP19 R52A): < 25%

Continued, values first:

IC50 of PP2A:B55 inhibition (DiFMUP), fold increase against wild type [1]: 38 fold
B3: FAM122AID R84A/L85A/S120C (domain or fragment, UniProt Q96E09 29-120, looked up)
chain: GGGLRRSNSAPLIHGLSDTSPVFQAEAPSARRNSTTFPSRHGLLLPASPVRMHSSAAHQIKQEEGMDLINRETVHEREVQTAMQISHSWEEC
modifications: Alexa Fluor 488 C5 Maleimide label (fluorescence polarization assay)

binding result [2]: binds
binding result [3]: binds
binding result [4]: binds
B4: B55 loopless (B55LL) (domain or fragment)
chain: MAGAGGGNDIQWCFSQVKGAVDDDVAEADIISTVEFNHSGELLATGDKGGRVVIFQQEQENKIQSHSRGEYNVYSTFQSHEPEFDYLKSLEIEEKINKIRWLPQKNAAQFLLSTNDKTIKLWKISNGEASPRRIFANAHTYHINSISINSDYETYLSADDLRINLWHLEITDRSFNIVDIKPANMEELTEVITAAEFHPNSCNTFVYSSSKGTIRLCDMRASALCDRHSKLFEEPEDPSNRSFFSEIISSISDVKFSHSGRYMMTRDYLSVKIWDLNMENRPVETYQVHEYLRSKLCSLYENDCIFDKFECCWNGSDSVVMTGSYNNFFRMFDRNTKRDITLEASRENNKPRTVLKPRKVCASGKRKKDEISVDSLDFNKKILHTAWHPKENIIAVATTNNLYIFQDKVN
notes: linker that replaces B55 residues 126–164; source: Expi293F, purified (GFP-nanobody beads, TEV on-column cleavage, QTrap, SEC); not shown: GFP, N-terminal, cleaved

binding result [5]: binds
B5: tpS62ARPP19_(S104A) (singly thiophosphorylated ARPP19) (natural protein, UniProt P56211 1-112, looked up)
chain: MSAEVPEAASAEEQKEMEDKVTSPEKAEEAKLKARYPHLGQKPGGSDFLRKRLQKGQKYFDSGDYNMAKAKMKNKQLPTAAPDKTEVTGDHIPTPQDLPQRKPALVASKLAG
modifications: thiophosphoserine at 62
notes: also called tpARPP19; S62 tpARPP19_(S104A); source: E. coli BL21 (DE3), purified; thiophosphorylated with MASTL kinase and ATP-γ-S; not shown: His6, N-terminal, cleaved; MBP, N-terminal, cleaved
